From US20230107644A1 (UNIVERSITY OF ROCHESTER, published 2023)

B1: 1092C4 hmAb (antibody, V domains shown)
VH: EVQLVQSGAEVKKPGASVKVSCKASGYSFTRYGISWVRQAPGQGLEWMGWISAYTGNTDYAQKFQGRITMTTDTSTSTAYMELRSLRSDDTAVYYCARDLPQGVVILGSYYYGMDVWGQGNTVTVSS
VL: EIVLTQSPGTLSLSPGERATLSCRASQSVTSRYLAWYQQKLGQAPRLLIYGASSRATGIPDRFSGSGSGTDFTLTISSLEPEDLAVYYCQQSGSPRTFGQGTKVEIK
B2: 1092E4 hmAb (antibody, V domains shown)
VH: QVQLVQSGAEVKKPGASVKVSCKASGYSFTRYGISWVRQAPGQGLEWMGWISAYTGNTDYAQKFQGRITMTTDTSTSTVYMELRSLRSDDTAVYYCARDHPQGVVILGSYYYGMDVWGQGNTVTVSS
VL: EIVLTQSPGTLSLSPGERATLSCRASQSVTSRYLAWYQQKLGQAPRLLIYGASSRATGIPDRFSGSGSGTDFTLTISSLEPEDFAVYYCQQSGSPRTFGQGTKVEIK
B3: 1122A11 hmAb (antibody, V domains shown)
VH: QVQLVQSGAEVSKPGASVKVSCKASGYSFTSQSLGWVRQAPGQGLEWMGIINPSGGITNYAHKFQGRVTMTRDTSTSTVYMELSSLRSEDTALYYCVRDLSHYNEVGHDRAYYYGMDIWGQGTTVTVSS
VL: SYELIQPPSVSVSPGQTASITCSGDKLGKKYTCWYQQKPGQSPVLVIYQDNKRPSGIPERFSGSNSGNTATLTISGTQAMDEADYYCQAWDSSAVVFGGGTKLTVL
B4: 1086G8 hmAb (antibody, V domains shown)
VH: EVQLLESGGGLVQPGGSLRLSCTASGFTFASDAMNWVRQAPGKGLEWVSAISGNGGITYFADSVKGRFTISRDNSKDTLYLQMDSLRAEDTAVYYCAKGVAPSHFNLLTGYYAGHYYFDFWGQGTLVTVSS
VL: EIVMTQSPATLSVSPGERATLSCRASQSVRHNLAWYQHKPGQPPRLLIYGASTRAASVPARFSGSGSGTDFTLTISSLQSEDFAVYYCQQYNHWPPYTFGQGTKLEIK

What was measured:
Assay in all cases: cell-based or functional assay
[1] = molecular target: HA (H3) of influenza virus A/Wyoming/3/2003 (influenza A virus A/Wyoming/3/2003 …)
[2] = molecular target: NA (N2) of influenza virus A/Victoria/210/2009 (influenza A virus A/Victoria/210/2009 …)
[3] = molecular target: NA (N2) of influenza virus A/Switzerland/9715283/2013 (influenza A virus …)
[4] = molecular target: NA (N2) of influenza virus A/Wyoming/3/2003 (influenza A virus A/Wyoming/3/2003 …)

| Binder | NT50 [1] [µg/mL] | NT50 [2] [µg/mL] | NT50 [3] [µg/mL] | NT50 [4] [µg/mL] |
| --- | --- | --- | --- | --- |
| B1 | 1.6 | – | – | – |
| B2 | 3.13 | – | – | – |
| B3 | – | 25 | 25 | 6.25 |
| B4 | 0.78 | – | – | – |
